Measured values published in the Human Domainome abundance scans (Beltran et al. 2025).
± gives the uncertainty stated by the source.

B1: Lysine-specific demethylase 2B, residues 656 to 722; numbered along this chain, Q8NHM5 (parent)
chain: LPHTAVCLVCGEAGKEDTVEEEEGKFNLMLMECSICNEIIHPGCLKIKESEGVVNDELPNCWECPKC

Variants of: B1
Assay: abundance fitness (aPCA) (normalised: wild type 0, dead -1); higher = more abundant; growth selection in yeast, the domain comes from the species named
Conditions: Homo sapiens

Row | Variant | abundance fitness
1 | V9Q | -0.635 ± 0.27
2 | V9W | -0.727 ± 0.45
3 | V9S | -0.1 ± 0.12
4 | G24R | -0.121 ± 0.068
5 | G24K | -0.051 ± 0.11
6 | G24Q | -0.123 ± 0.1
7 | G24S | 0.15 ± 0.082
8 | G24C | -0.415 ± 0.11
9 | C10S | -0.332 ± 0.076
10 | C10A | -0.37 ± 0.098
11 | C10T | -0.244 ± 0.094
12 | C10N | -0.259 ± 0.33
13 | C10Q | -0.528 ± 0.15
14 | E21S | 0.305 ± 0.068
15 | E21P | 0.033 ± 0.15
16 | E21K | 0.022 ± 0.13
17 | E21R | 0.034 ± 0.099
18 | E21H | 0.264 ± 0.26
19 | E21W | -0.354 ± 0.11
20 | C67T | -0.462 ± 0.27
21 | C67E | -0.596 ± 0.41
22 | C67W | -1.43 ± 0.48
23 | V54T | 0.126 ± 0.12
24 | V54D | -0.119 ± 0.11

Row | Variant | abundance fitness
25 | V54P | -0.065 ± 0.25
26 | V54I | 0.126 ± 0.12
27 | P65D | -0.547 ± 0.25
28 | P65F | -0.401 ± 0.16
29 | G52F | -0.028 ± 0.11
30 | G52N | -0.09 ± 0.32
31 | G52H | -0.086 ± 0.12
32 | G52L | -0.142 ± 0.066
33 | G52W | -0.365 ± 0.2
34 | G52A | 0.224 ± 0.11
35 | I39W | -0.157 ± 0.095
36 | I39C | -0.216 ± 0.23
37 | I39R | 0.138 ± 0.065
38 | P42C | -0.355 ± 0.21
39 | P42H | 0.019 ± 0.18
40 | P42T | -0.568 ± 0.18
41 | H41Q | -0.952 ± 0.21
42 | H41L | -0.925 ± 0.14
43 | H41G | -0.903 ± 0.12
44 | E38N | -0.402 ± 0.16
45 | E38S | -0.06 ± 0.093
46 | E38M | 0.066 ± 0.072
47 | C33A | -0.912 ± 0.2
48 | C33E | -0.619 ± 0.14

Row | Variant | abundance fitness
49 | C33Y | -0.621 ± 0.44
50 | C33S | -0.716 ± 0.22
51 | C33D | -0.852 ± 0.24
52 | C33T | -0.753 ± 0.19
53 | C44P | -0.722 ± 0.12
54 | C44G | -0.764 ± 0.12
55 | C44Q | -0.79 ± 0.12
56 | C44A | -0.779 ± 0.18
57 | N27T | -0.169 ± 0.12
58 | N27A | 0.091 ± 0.078
59 | N27R | -0.036 ± 0.064
60 | C64K | -0.749 ± 0.15
61 | C64H | 0.218 ± 0.39
62 | S50K | -0.025 ± 0.075
63 | S50P | 0.087 ± 0.13
64 | S50C | 0.078 ± 0.084
65 | S50V | 0.039 ± 0.068
66 | H3Q | -0.015 ± 0.12
67 | H3E | 0.34 ± 0.13
68 | H3T | 0.147 ± 0.087
69 | H3C | -0.642 ± 0.17
70 | H3W | -0.572 ± 0.12
71 | H3K | 0.506 ± 0.1
72 | H3G | 0.42 ± 0.067

Row | Variant | abundance fitness
73 | H3P | -0.14 ± 0.14
74 | H3M | 0.478 ± 0.15
75 | H3A | -0.013 ± 0.12
76 | L30C | -0.232 ± 0.12
77 | L30W | -0.309 ± 0.093
78 | L30M | -0.373 ± 0.14
79 | L30G | -0.209 ± 0.089
80 | L8P | -0.433 ± 0.24
81 | L8R | 0.104 ± 0.14
82 | L8G | -0.588 ± 0.17
83 | K66V | -0.173 ± 0.24
84 | K66M | -0.434 ± 0.14
85 | E23L | -0.354 ± 0.11
86 | E23D | -0.016 ± 0.17
87 | E23A | 0.004 ± 0.076
88 | E23W | -0.554 ± 0.15
89 | E23F | -0.058 ± 0.26
90 | E23N | -0.05 ± 0.18
91 | I47N | -0.307 ± 0.29
92 | I47D | -0.261 ± 0.24
93 | I47E | 0.038 ± 0.11
94 | I47V | 0.006 ± 0.068
95 | I47T | 0.08 ± 0.11
96 | D17F | -0.017 ± 0.16

Row | Variant | abundance fitness
97 | D17E | -0.069 ± 0.081
98 | D17L | -0.369 ± 0.09
99 | A5L | -0.004 ± 0.13
100 | A5T | 0.138 ± 0.16
101 | A5N | -0.051 ± 0.26
102 | A5R | 0.073 ± 0.14
103 | N55T | -0.101 ± 0.12
104 | N55E | -0.165 ± 0.13
105 | N55W | -0.389 ± 0.19
106 | K48M | 0.157 ± 0.11
107 | K48C | -0.179 ± 0.15
108 | K48E | 0.152 ± 0.1
109 | E57D | 0.103 ± 0.13
110 | E57H | 0.001 ± 0.28
111 | E57M | -0.079 ± 0.14
112 | E57V | -0.168 ± 0.085
113 | E57Y | -0.179 ± 0.18
114 | F26D | -0.4 ± 0.21
115 | F26L | -0.297 ± 0.097
116 | D56H | 0.692 ± 0.48
117 | D56W | -0.401 ± 0.089
118 | D56Y | 0.063 ± 0.2
119 | D56L | -0.114 ± 0.085
120 | D56M | 0.123 ± 0.14

Row | Variant | abundance fitness
121 | D56K | 0.179 ± 0.13
122 | D56E | -0.075 ± 0.069
123 | E20D | -0.276 ± 0.23
124 | E20T | -0.169 ± 0.11
125 | M31Q | -0.662 ± 0.28
126 | M31F | -0.272 ± 0.16
127 | M31R | -0.141 ± 0.085
128 | M31T | -0.405 ± 0.16
129 | E12P | -0.458 ± 0.12
130 | E12G | 0.099 ± 0.073
131 | G11Q | 0.129 ± 0.1
132 | G11H | -0.362 ± 0.27
133 | G11I | -0.828 ± 0.49
134 | G14M | -0.172 ± 0.14
135 | G14K | -0.229 ± 0.19
136 | G43W | -0.52 ± 0.12
137 | G43Y | -0.02 ± 0.2
138 | G43K | -0.219 ± 0.13
139 | K25N | -0.118 ± 0.18
140 | K25A | -0.242 ± 0.11
141 | K25V | -0.525 ± 0.1
142 | E22D | -0.153 ± 0.19
143 | E22A | 0.032 ± 0.087
144 | E22I | -0.131 ± 0.34

Row | Variant | abundance fitness
145 | L58W | -0.149 ± 0.095
146 | L58C | 0.066 ± 0.15
147 | L58R | 0.076 ± 0.082
148 | A13L | -0.077 ± 0.075
149 | A13Y | -0.117 ± 0.14
150 | A13R | 0.443 ± 0.066
151 | A13H | -0.437 ± 0.24
152 | A13G | 0.387 ± 0.058
153 | A13F | 0.001 ± 0.14
154 | V53K | -0.167 ± 0.14
155 | V53F | -0.343 ± 0.21
156 | C36F | -1.21 ± 0.43
157 | C36A | -0.78 ± 0.16
158 | C36D | -0.549 ± 0.26
159 | C36H | -1.18 ± 0.43
160 | L1C | 0.414 ± 0.19
161 | L1A | -0.175 ± 0.22
162 | L1K | -0.363 ± 0.14
163 | L1T | 0.035 ± 0.1
164 | S34R | -0.229 ± 0.092
165 | S34K | -0.021 ± 0.11
166 | S34T | 0.082 ± 0.2
167 | S34Q | 0.027 ± 0.12
